2 substances from publication PMC8525972 can be followed below.

For the test, the target named is fluorescein-labeled Fc-III (Fluorescein-Ahx-…-NH2). The experiment in a line: other fluorescence titration.

“human IgG1 adalimumab biosimilar Exemptia (antibody)”: the fold increase of fluorescence intensity at 2.5 g/L is 1.8 fold and the limit of detection by fluorescence intensity amounted to 0.0001 g/L.

As to murine IgG1 (antibody), the limit of detection by fluorescence intensity was 0.1 g/L.
